Measurements published in the supplement of paper PMC12764529.

Experiment: folding stability dG unfold (combined trypsin and chymotrypsin); higher = more stable
Experimental: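 Folding stability of de novo designed mini-proteins (<80 aa, no Cys; designed by TrROS, TrMRF, ProteinMPNN and the joint model) was measured by cDNA display proteolysis with trypsin and chymotrypsin. Each protease was used at 11 concentrations in a threefold dilution series plus a no-protease condition. K50 was inferred by Bayesian fitting of sequencing counts, and dG unfold was derived against a sequence-predicted unfolded-state K50 (Tsuboyama et al. method). Sequences shown include variable-length N-terminal GS-type padding (SAGGSAGG...) inside a display construct carrying a PA tag. Rows were kept only if the AF2 dimer inter-PAE was >15, to exclude likely homo-oligomers.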

Sequence | folding stability dG unfold [kcal/mol]
SAGGSAGGMKKEKFGDSIRYTFPVDPNTSVEEIKKEIEKIPGVKDISKVKITPSPSNKLLVYVKSAGGSAGG [r6_516_JUSTAS] | < -1
SAGGSAGGSAGVTDPNSSKPVPSSYVVVTVRGPEKESYYRVPPSEAAAFAAARGVEVILESAGGSAGGSAGG [r17_109_JUSTAS] | < -1
SAGGSAGGSGSPSRPSPVLKFTFPKDPKPVTVPIPSGDPAAAAAAAAALEAAHPDTPVAVEAASAGGSAGGS [r12_601_JUSTAS] | < -1
SAGGMRIPLKQIKDVNHQPPPGNGYPMVTVKVRDGGKPHTHTIPNNMNWEEAKRMVEEALDEGPIEIESAGG [r13_225_TrROS] | < -1
SAGGMTIDSPEEAVQAIEDNPDKPLTLLVPTDPSTGSVPEEVVQAFAEPGFPISRDPAGYWTITYPPSAGGS [r16_335_JUSTAS] | < -1
SAGGSAGGSAGEIEIEFEPGEEFLDFIKNLPGPIESIEIEPIDPDKVRARLKLNIPEDLASAGGSAGGSAGG [r11_143_TrMRF] | < -1
SAGGSAGGSAGEPGFTVRVLKKDLPTGEFSEVEIEVPASVPLEEVIEALDPDQVVAVEVESAGGSAGGSAGG [r11_386_TrMRF] | < -1
SAGGSAGGSAGKMVEVRIEVDVPDADGRPVRVTFTAPLPLHPDGRIDVPAGRVRRVEVRGSAGGSAGGSAGG [r11_664_TrMRF] | < -1
SAGGQKITIDNVTPGMIRIRVPNGNEFEFPEIQKELQEHGNNQPPTADQIAEWLRKRNFPIKDIEISDSAGG [r13_610_TrROS] | < -1
SAGGSAGGSAGGPIKVETEPYPDGYHRVEIMLPGNGQKKEIHFPNGQTPEQAKDWIKEWSAGGSAGGSAGGS [r10_825_TrROS] | < -1
SAGGSAGGSAGGPKEIPIKIKIYPPNGRKRERPVPLKSEEQALDQLQEAMPPGWFIEIWSAGGSAGGSAGGS [r10_145_TrROS] | < -1
SAGGSAGGSLSLSSNPLVTDPETGEVVYPAVADPVGIATAQWPDSTSYTPMPPNVTRVVRPGEASAGGSAGG [r6_627_JUSTAS] | < -1
SATVTVETTLSDVDTLLAAAEAAGWAVTRTQEPSSPLRRATITAPLPDGTAAPVTVTVDPASGRAVLVGSAG [r14_169_JUSTAS] | < -1
SAGGSAGGSAGGKKQTLVIRSDNKPIPIEYDDDNIKISNPNGKKQEIPPEDLPPDGIEPVSAGGSAGGSAGG [r7_748_TrROS] | < -1
SAGGDWIPFRIKQYDPKDGKPKREWPIQYNPEDGMMQIRPPDGKKHEFPMPMQEILENLPPGFEIEPSAGGS [r16_543_TrROS] | < -1
SAGMKPGEPIMTIKIKVKDPDNGKEVPINIPVRYQYDNGEPKRPISPDDALEEAKDLADRLKKDPNIKISAG [r5_426_TrROS] | < -1
SAGKIKEIEMDPPHNQMTLELPEKGRKITINPNMGHLDIEPPDGKPREVPVPNPSDMKEAIKKVLKELKSAG [r5_467_TrROS] | < -1
SAGGSAGGSAGGPEWKEIDIPFDTPEDAIDEAEDKLPPDDKIDVHNPDDGQPITFTVPRNSAGGSAGGSAGG [r7_877_TrROS] | < -1
SAGGSAGGSAGERYYMVEIQPKNGRRIKIMIPDDPEKAVKKARELFPDYEVEVEPMKKPPSAGGSAGGSAGG [r11_850_TrROS] | < -1
SAGGSAGGSAGMKIKLPNIPGAEVEIEKDPEVPDLYKIKIKNKETKEEIEITLPKEALKPSAGGSAGGSAGG [r17_341_TrROS_Hall] | < -1
SAGGRPYKVKIKNPGSGKPYEMPIVDVHESDDNFYIMIQNPNGKNREAPLNNIDKAEVDEEGGTITLPSAGG [r13_211_TrROS] | < -1
SAGGSAGGSGFTVLEKDPSTGKVLVRLPPSLVEDVRRLPDVSPVAEEPDSVLLERTIPPGALASAGGSAGGS [r12_694_JUSTAS] | < -1

Sequence | folding stability dG unfold [kcal/mol]
SAGGSAGGSAGMVTTSETITVTVTLPTGPTETITVPVTTTVPVVPVSPEVAAADPAAVAALLSAGGSAGGSA [r18_114_JUSTAS] | < -1
SAGGSAGSSSVSTVTPVGDYVVVTVNAPEGSVVTITDPATGTTETRAAPAGATFTVPPNASVSVTNSAGGSA [r15_418_JUSTAS] | < -1
SAGGMTSTFRFSDSRGRLSVEKITPETGKVTVVEQGPSSPRRSTLNASPEEAFQQLKDANDFPASRLESAGG [r13_141_JUSTAS] | < -1
SAGGSAGGSKDILANFPPGWKIEEEPNPNGMTRIDIKNPNGNEHRMEFPVNGKPIKFTIKPPESAGGSAGGS [r20_50_TrROS] | < -1
SAGSFSVRLTLRAPDGTTETVSGPAAVAAAIAALPADETAESSVPGSSSSSTVTLPAGGTFSLSTLSSSSAG [r5_506_JUSTAS] | < -1
SAKAKVVEIKEENGKVIIKIEVEDENGNKKTIEIELPKDDIEIVEVDEDKIVIYNKKTGKKITLDLKDLSAG [r14_947_TrROS_Hall] | > 6
SAGGTELAERIRAMGGFEVVEIKEGEGKPKVTVRTPDPALAEELRAFLAADPRVESVELEELSPELKSAGGS [r16_671_JUSTAS] | < -1
SAGGSAGGSAGGGGKKKREISIMFEGGTPSDFKREAREIANSPENKDNVDEVEITMMPGSAGGSAGGSAGGS [r10_351_TrROS] | < -1
SARYKRNPDGKPRREEPVPPKPPTIEIPIPFNMPPDDPEMMKRFAEMIADMLADEHGLPPNVPIHISMNSAG [r14_453_TrROS] | < -1
SAGGSAGGSAGGSGEDDVEVEVVPLPGDLTRTIERFPGLVRTFVYAPDSEVAEEEFELPSAGGSAGGSAGGS [r4_322_JUSTAS] | < -1
SAGGSMKSEKVFTDPGPFDGASVTVTATEDGTITITVVDPDGVPKTFTKKVEKGNPEEVVKEAIKESAGGSA [r2_298_TrMRF] | < -1
SAGGDKKKKEVEFRFPGMPFRVSIQVDPDEGKIPIEIYNPDNGQSLDDLKSNPAMQQMVREAANALKSAGGS [r16_96_TrROS] | < -1
SAGGSAGGSAGGSGMRLVEEVKYSTRKQPTGVPVYEVENLKVKEVPVKITVDSNGVLTLESAGGSAGGSAGG [r11_381_JUSTAS] | < -1
SAGGSAGGSAGDIDIKVEYNKENGMYRVRASFPDGKEVPIWMPPGQTPEEAKDQAKELLKSAGGSAGGSAGG [r17_161_TrROS] | < -1
SAGGMDDVIRKALEEATPPLEVKEELILTTEPTPRGTVITKTTRPIIKSPEPGTFVPEPVEVVPAALLSAGG [r19_11_JUSTAS] | < -1
SAGGSAGGSAGGSGSSVTTVTEEPGRRVVTRFVPETGEEEVLSTEEVPAPPLPLSPALLSAGGSAGGSAGGS [r4_21_JUSTAS] | < -1
SAGGSAGGSAGGMPVSFEELKKLPPNTVLIFSDGTVVTAPEEEVKKPFGKEKIVYVEEKPSAGGSAGGSAGG [r7_643_JUSTAS] | < -1
SAGGSAGGSAGGSPQIKVEYERNGGYYPVKISIPNGRKVEIPNMPVENAEKMAKEFLKKSAGGSAGGSAGGS [r4_383_TrROS] | < -1
SAGGMITTEREVEVPPDELDEVIERLKAEVAAQPLEPAEDIKILEIEEKEEKAVIKYKVTAKVEGEKLLSAG [r5_575_JUSTAS] | < -1
SAGGSAGGSAVIVIPASVVEEKKEKIELKLEDETEYEVEVTTEKVGDEPIAVLKLIPKNIPSSAGGSAGGSA [r18_447_JUSTAS] | < -1
SAGGMSPDATITENLVTDSEEEALAKLLADPSVAEVKPLGVKPDKTKEGKPVIIVPVELRIPADGVRLSAGG [r19_221_JUSTAS] | < -1
SAGGMPPSFVVEEEKTVEGTSTVTLRKITNPSSSEDMLSEIVTPPDGSVTLILKKDNIIEVIPSSELSAGGS [r16_49_JUSTAS] | < -1
